The text below walks through data of article PMC5716173.

Read-outs that look alike come from different tables or passages of the source.

Common to all, as to assay: fluorescence anisotropy
Data set [1] deals with T1, PabPolB exo- (family B DNA polymerase, exonuclease-deficient) (Pyrococcus abyssi, UniProt P0CL77 1-771, D215A).
T1 sequence: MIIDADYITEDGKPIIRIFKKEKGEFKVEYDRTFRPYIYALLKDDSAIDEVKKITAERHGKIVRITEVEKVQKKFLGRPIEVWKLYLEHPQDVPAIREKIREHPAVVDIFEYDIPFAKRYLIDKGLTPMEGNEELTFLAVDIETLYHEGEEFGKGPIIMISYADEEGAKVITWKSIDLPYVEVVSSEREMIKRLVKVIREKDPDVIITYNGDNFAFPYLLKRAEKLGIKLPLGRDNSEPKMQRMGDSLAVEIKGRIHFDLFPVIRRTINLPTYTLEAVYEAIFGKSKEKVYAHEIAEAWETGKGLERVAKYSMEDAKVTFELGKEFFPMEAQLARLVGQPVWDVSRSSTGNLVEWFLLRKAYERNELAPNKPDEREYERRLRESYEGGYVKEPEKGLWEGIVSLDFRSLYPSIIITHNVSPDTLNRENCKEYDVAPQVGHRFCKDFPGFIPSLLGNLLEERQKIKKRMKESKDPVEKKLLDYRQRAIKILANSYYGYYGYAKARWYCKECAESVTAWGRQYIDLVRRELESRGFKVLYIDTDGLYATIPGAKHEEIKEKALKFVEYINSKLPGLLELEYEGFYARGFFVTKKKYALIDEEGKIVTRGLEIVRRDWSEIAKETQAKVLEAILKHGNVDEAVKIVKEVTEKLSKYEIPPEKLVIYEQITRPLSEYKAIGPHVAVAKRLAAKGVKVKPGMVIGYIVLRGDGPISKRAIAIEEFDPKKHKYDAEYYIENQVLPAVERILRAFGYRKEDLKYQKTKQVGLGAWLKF

The target of data set [2] is T1, PabPolB exo- (family B DNA polymerase, …). The source holds these as a separate data set.
For data set [3] the target is unchanged. This is another data set of the same source.
Data set [4] shares this target. The source holds these as a separate data set.
For data set [5] the target is unchanged. This is another data set of the same source.
The target is the same in data set [6]. This is another data set of the same source.

B1: HEX-labeled primer/template 18/25 (dsDNA)
DNA 1: CGCCGGGCCGAGCCGTGC
DNA 2: AGGTCGTGCACGGCTCGGCCCGGCG
The Kd is the constant that tells how readily two partners part at equilibrium. On to B1, for which the Kd was determined as 0.038 ± 0.006 µM in data set [1]; 0.043 ± 0.006 µM in data set [2]; 0.02 ± 0.006 µM in data set [3]; 0.007 ± 0.001 µM in data set [4]; 0.017 ± 0.002 µM in data set [5]; 0.025 ± 0.003 µM in data set [6].
